Test results: patent publication US10703784B2, “Antigens and epitopes derived from Mycobacterium tuberculosis” (priority 2011, dated 2020)
Residue numbers refer to the chain shown, from its start.

B1: Rv3330: MTB protein, novel CD4 T cell antigen; Cell wall and cell processes (protein, listed as Mycobacterium tuberculosis)
chain: MAFLRSVSCLAAAVFAVGTGIGLPTAAGEPNAAPAACPYKVSTPPAVDSSEVPAAGEPPLPLVVPPTPVGGNALGGCGIITAPGSAPAPGDVSAEAWLVADLDSGAVIAARDPHGRHRPASVIKVLVAMASINTLTLNKSVAGTADDAAVEGTKVGVNTGGTYTVNQLLHGLLMHSGNDAAYALARQLGGMPAALEKINLLAAKLGGRDTRVATPSGLDGPGMSTSAYDIGLFYRYAWQNPVFADIVATRTFDFPGHGDHPGYELENDNQLLYNYPGALGGKTGYTDDAGQTFVGAANRDGRRLMTVLLHGTRQPIPPWEQAAHLLDYGFNTPAGTQIGTLIEPDPSLMSTDRNPADRQRVDPQAAARISAADALPVRVGVAVIGALIVFGLIMVARAMNRRPQH
B2: Rv1788: MTB protein, novel CD4 T cell antigen; PE/PPE (protein, listed as Mycobacterium tuberculosis)
chain: MSFVTTQPEALAAAAGSLQGIGSALNAQNAAAATPTTGVVPAAADEVSALTAAQFAAHAQIYQAVSAQAAAIHEMFVNTLQMSSGSYAATEAANAAAAG
B3: Rv1791: MTB protein, novel CD4 T cell antigen; PE/PPE (protein, listed as Mycobacterium tuberculosis)
chain: B2 chain with G16A, S17N, S23T, A24T, L25M, T34A, I61M, A64T, Q81V, M82A
B4: Rv3125c: MTB protein, novel CD4 T cell antigen; PE/PPE (protein, listed as Mycobacterium tuberculosis)
chain: MVLGFSWLPPEINSARMFAGAGSGPLFAAASAWEGLAADLWASASSFESVLAALTTGPWTGPASMSMAAAASPYVGWLSTVASQAQLAAIQARAAATAFEAALAATVHPTAVTANRVSLASLIAANVLGQNTPAIAATEFDYLEMWAQDVAAMVGYHAGAKSVAATLAPFSLPPVSLAGLAAQVGTQVAGMATTASAAVTPVVEGAMASVPTVMSGMQSLVSQLPLQHASMLFLPVRILTSPITTLASMARESATRLGPPAGGLAAANTPNPSGAAIPAFKPLGGRELGAGMSAGLGQAQLVGSMSVPPTWQGSIPISMASSAMSGLGVPPNPVALTQAAGAAGGGMPMMLMPMSISGAGAGMPGGLMDRDGAGWHVTQARLTVIPRTGVG
B5: Rv0294: MTB protein, novel CD4 T cell antigen; Intermediary metabolism and respiration, Island 1 (protein, listed as Mycobacterium tuberculosis)
chain: MWDPDVYLAFSGHRNRPFYELVSRVGLERARRVVDLGCGPGHLTRYLARRWPGAVIEALDSSPEMVAAAAERGIDATTGDLRDWKPKPDTDVVVSNAALHWVPEHSDLLVRWVDELAPGSWIAVQIPGNFETPSHAAVRALARREPYAKLMRDIPFRVGAVVQSPAYYAELLMDTGCKVDVWETTYLHQLTGEHPVLDWITGSALVPVRERLSDESWQQFRQELIPLLNDAYPPRADGSTIFPFRRLFMVAEVGGARRSGG
B6: Rv2874: MTB protein, novel CD4 T cell antigen; Intermediary metabolism and respiration (protein, listed as Mycobacterium tuberculosis)
chain: MVESRRAAAAASAYASRCGIAPATSQRSLATPPTISVPSGEGRCRCHVARGAGRDPRRRLRRRRWCGRCGYHSHLTGGEFDVNRLCQQRSRERSCQLVAVPADPRPKRQRITDVLTLALVGFLGGLITGISPCILPVLPVIFFSGAQSVDAAQVAKPEGAVAVRRKRALSATLRPYRVIGGLVLSFGMVTLLGSALLSVLHLPQDAIRWAALVALVAIGAGLIFPRFEQLLEKPFSRIPQKQIVTRSNGFGLGLALGVLYVPCAGPILAAIVVAGATATIGLGTVVLTATFALGAALPLLFFALAGQRIAERVGAFRRRQREIRIATGSVTILLAVALVFDLPAALQRAIPDYTASLQQQISTGTEIREQLNLGGIVNAQNAQLSNCSDGAAQLESCGTAPDLKGITGWLNTPGNKPIDLKSLRGKVVLIDFWAYSCINCQRAIPHVVGWYQAYKDSGLAVIGVHTPEYAFEKVPGNVAKGAANLGISYPIALDNNYATWTNYRNRYWPAEYLIDATGTVRHIKFGEGDYNVTETLVRQLLNDAKPGVKLPQPSSTTTPDLTPRAALTPETYFGVGKVVNYGGGGAYDEGSAVFDYPPSLAANSFALRGRWALDYQGATSDGNDAAIKLNYHAKDVYIVVGGTGTLTVVRDGKPATLPISGPPTTHQVVAGYRLASETLEVRPSKGLQVFSFTYG
B7: Rv3135: MTB protein, novel CD4 T cell antigen; PE/PPE (protein, listed as Mycobacterium tuberculosis)
chain: B4 chain
B8: Rv3876: MTB protein, novel CD4 T cell antigen; Cell wall and cell processes, Island 3, Esx-1 (protein, listed as Mycobacterium tuberculosis)
chain: MAADYDKLFRPHEGMEAPDDMAAQPFFDPSASFPPAPASANLPKPNGQTPPPTSDDLSERFVSAPPPPPPPPPPPPPTPMPIAAGEPPSPEPAASKPPTPPMPIAGPEPAPPKPPTPPMPIAGPEPAPPKPPTPPMPIAGPAPTPTESQLAPPRPPTPQTPTGAPQQPESPAPHVPSHGPHQPRRTAPAPPWAKMPIGEPPPAPSRPSASPAEPPTRPAPQHSRRARRGHRYRTDTERNVGKVATGPSIQARLRAEEASGAQLAPGTEPSPAPLGQPRSYLAPPTRPAPTEPPPSPSPQRNSGRRAERRVHPDLAAQHAAAQPDSITAATTGGRRRKRAAPDLDATQKSLRPAAKGPKVKKVKPQKPKATKPPKVVSQRGWRHWVHALTRINLGLSPDEKYELDLHARVRRNPRGSYQIAVVGLKGGAGKTTLTAALGSTLAQVRADRILALDADPGAGNLADRVGRQSGATIADVLAEKELSHYNDIRAHTSVNAVNLEVLPAPEYSSAQRALSDADWHFIADPASRFYNLVLADCGAGFFDPLTRGVLSTVSGVVVVASVSIDGAQQASVALDWLRNNGYQDLASRACVVINHIMPGEPNVAVKDLVRHFEQQVQPGRVVVMPWDRHIAAGTEISLDLLDPIYKRKVLELAAALSDDFERAGRR
B9: Rv0124: MTB protein, novel CD4 T cell antigen; PE/PPE (protein, listed as Mycobacterium tuberculosis)
chain: MSFVSVAPEIVVAAATDLAGIGSAISAANAAAAAPTTAVLAAGADEVSAAIAALSGHAQAYQALSAQAAAFHQQFVQTLAGGAGAYAAAEAQVEQQLLAAINAPTQALLGRPLIGNGADGAPGTGQAGGAGGILYGNGGNGGSGAAGQAGGAGGPAGLIGHGGSGGAGGSGAAGGAGGHGGWLWGNGGVGGSGGAGVGAGVAGGHGGAGGAAGLWGAGGGGGNGGNGADANIVSGGDGGLGGAGGGGGWLYGDGGAGGHGGQGAIGLGGGAGGDGGQGGAGRGLWGTGGAGGHGGQGGGTGGPPLPGQAGMGAAGGAGGLIGNGGAGGDGGVGASGGVAGVGGAGGNAMLIGHGGAGGAGGDSSFANGAAGGAGGAGGHLFGNGGSGGHGGAVTAGNTGIGGAGGVGGDARLIGHGGAGGAGGDRAGALVGRDGGPGGNGGAGGQLYGNGGDGAPGTGGTLQAAVSGLVTALFGAPGQPGDTGQPG
B10: Rv0291: MTB protein, novel CD4 T cell antigen; Intermediary metabolism and respiration, Island 1 (protein, listed as Mycobacterium tuberculosis)
chain: MIRAAFACLAATVVVAGWWTPPAWAIGPPVVDAAAQPPSGDPGPVAPMEQRGACSVSGVIPGTDAGVPTPSQTMLNLPAAWQFSRGEGQLVAIIDTGVQPGPRLPNVDAGGDFVESTDGLTDCDGHGTLVAGIVAGQPGNDGFSGVAPAARLLSIRAMSTKFSPRTSGGDPQLAQATLDVAVLAGAIVHAADLGAKVINVSTITCLPADRMVDQAALGAAIRYAAVDKDAVIVAAAGNTGASGSVSASCDSNPLTDLSRPDDPRNWAGVTSVSIPSWWQPYVLSVASLTSAGQPSKFSMPGPWVGIAAPGENIASVSNSGDGALANGLPDAHQKLVALSGTSYAAGYVSGVAALVRSRYPGLNATEVVRRLTATAHRGARESSNIVGAGNLDAVAALTWQLPAEPGGGAAPAKPVADPPVPAPKDTTPRNVAFAGAAALSVLVGLTAATVAIARRRREPTE
B11: Rv0292: MTB protein, novel CD4 T cell antigen; Cell wall and cell processes, Island 1, Esx-3 (protein, listed as Mycobacterium tuberculosis)
chain: MNPIPSWPGRGRVTLVLLAVVPVALAYPWQSTRDYVLLGVAAAVVIGLFGFWRGLYFTTIARRGLAILRRRRRIAEPATCTRTTVLVWVGPPASDTNVLPLTLIARYLDRYGIRADTIRITSRVTASGDCRTWVGLTVVADDNLAALQARSARIPLQETAQVAARRLADHLREIGWEAGTAAPDEIPALVAADSRETWRGMRHTDSDYVAAYRVSANAELPDTLPAIRSRPAQETWIALEIAYAAGSSTRYTVAAACALRTDWRPGGTAPVAGLLPQHGNHVPALTALDPRSTRRLDGHTDAPADLLTRLHWPTPTAGAHRAPLTNAVSRT
B12: Rv0293c: MTB protein, novel CD4 T cell antigen; Conserved hypotheticals, Island 1 (protein, listed as Mycobacterium tuberculosis)
chain: MSGTFTADAIGPPVPIPDVPGADAGAEGLPSRSVLSARQRILVESSAIADVALRTAVASVLSATVTPAVVANALRHVNEGSERSNLNFYAELAAAHDPAKSFPAPTELPKVTSRPASPLTEWVARGTVDNIAFASGFRAINPTMRQRWSALTANNIVHAQHWRHRDGPRPTLCVIHGFMGSSYLLNGLFFSLPWYYRSGYDVLLYTLPFHGQRAEKFSPFSGFGYFTSGLSGFAEAMAQAVYDFRSIVDYLRHIGVDRIALTGISLGGYTSALLASVESRLEAVIPNCPVVMPAKLFDEWFPANKLVKLGLRLTNISRDELIAGLAYHGPLNYRPLLPKDRRMIITGLGDRMAPPEHAVTLWKQWDRCALHWFPGSHLLHVSQLDYLRRMTVFLQGLMFD

What follows are molecules tested on PBMCs from LTBI donors (IFN-γ production). Conditions: fraction of 28 LTBI donors responding to epitopes of the antigen, ex vivo IFN-γ ELISPOT.
Assay type: cell-based, human

In order of falling Resp. freq.:
1. B1  29%
2. B2  25%
3. B3  25%
4. B4  21%
5. B5  18%
6. B6  18%
7. B7  18%
8. B8  18%
9. B9  14%
10. B10  14%
11. B11  14%
12. B12  14%

Same assay, conditions: total spot-forming cells, LTBI donors, ex vivo IFN-γ ELISPOT

In order of falling “Total SFC” value:
1. B1  1595 SFC
2. B5  1368 SFC
3. B8  1323 SFC
4. B10  1153 SFC
5. B12  1073 SFC
6. B6  798 SFC
7. B11  708 SFC
8. B3  355 SFC
9. B2  347 SFC
10. B7  317 SFC
11. B9  177 SFC
12. B4  125 SFC
